Publication PMC4131897 (Biochemistry, 2014)
Blank lines part the entries; values can stand above or below the molecule they belong to.

Assays:
[1] = target: T1, BjPutA (proline utilization A) (Bradyrhizobium diazoefficiens, UniProt Q89E26); assay: coupled PRODH-P5CDH assay, NADH formation at […] nm, substrate inhibition fit; type: biochemical; settings: 0.1 mM CoQ1, 0.2 mM NAD+, 50 mM potassium phosphate pH 7.5, 25 mM NaCl
T1 sequence (Q89E26 1-999): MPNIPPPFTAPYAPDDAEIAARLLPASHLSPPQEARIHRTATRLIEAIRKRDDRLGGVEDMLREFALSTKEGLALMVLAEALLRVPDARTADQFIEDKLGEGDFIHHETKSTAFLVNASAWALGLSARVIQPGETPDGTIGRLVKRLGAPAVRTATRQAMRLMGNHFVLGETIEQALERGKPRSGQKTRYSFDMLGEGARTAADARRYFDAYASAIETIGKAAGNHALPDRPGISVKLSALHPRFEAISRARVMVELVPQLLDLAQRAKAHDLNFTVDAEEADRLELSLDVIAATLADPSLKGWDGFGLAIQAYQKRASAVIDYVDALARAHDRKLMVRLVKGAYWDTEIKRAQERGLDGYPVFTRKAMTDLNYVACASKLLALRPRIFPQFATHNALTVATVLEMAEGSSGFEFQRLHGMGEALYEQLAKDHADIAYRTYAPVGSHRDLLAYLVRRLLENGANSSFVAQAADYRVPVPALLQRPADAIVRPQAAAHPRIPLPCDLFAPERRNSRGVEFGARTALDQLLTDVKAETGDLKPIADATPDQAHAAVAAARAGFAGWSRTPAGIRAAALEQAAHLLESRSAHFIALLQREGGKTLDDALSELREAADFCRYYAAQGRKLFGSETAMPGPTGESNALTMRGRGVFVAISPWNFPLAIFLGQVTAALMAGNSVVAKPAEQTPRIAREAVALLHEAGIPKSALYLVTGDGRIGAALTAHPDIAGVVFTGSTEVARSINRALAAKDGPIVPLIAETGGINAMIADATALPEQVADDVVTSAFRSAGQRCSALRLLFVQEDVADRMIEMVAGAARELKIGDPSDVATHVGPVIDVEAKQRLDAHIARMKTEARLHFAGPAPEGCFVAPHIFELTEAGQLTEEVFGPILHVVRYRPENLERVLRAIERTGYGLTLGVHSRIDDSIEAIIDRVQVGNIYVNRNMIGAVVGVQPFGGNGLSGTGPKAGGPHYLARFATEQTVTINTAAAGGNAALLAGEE

purified protein [2] = substrate: COC1=C(OC)C(=O)C(CC=C(C)C)=C(C)C1=O; assay: purified protein; settings: 150 mM proline, 50 mM potassium phosphate pH 7.5, 23 °C
purified protein [3] = substrate: O=C(O)[C@@H]1CCCN1; assay: purified protein; settings: 250 μM CoQ1, 50 mM potassium phosphate pH 7.5, 23 °C

Ki [1]: 24 ± 12 mM
Molecule: O=C(O)[C@@H]1CCCN1 [proline]

B1: BjPutA (proline utilization A) (Bradyrhizobium diazoefficiens USDA 110) (protein)
chain: MPNIPPPFTAPYAPDDAEIAARLLPASHLSPPQEARIHRTATRLIEAIRKRDDRLGGVEDMLREFALSTKEGLALMVLAEALLRVPDARTADQFIEDKLGEGDFIHHETKSTAFLVNASAWALGLSARVIQPGETPDGTIGRLVKRLGAPAVRTATRQAMRLMGNHFVLGETIEQALERGKPRSGQKTRYSFDMLGEGARTAADARRYFDAYASAIETIGKAAGNHALPDRPGISVKLSALHPRFEAISRARVMVELVPQLLDLAQRAKAHDLNFTVDAEEADRLELSLDVIAATLADPSLKGWDGFGLAIQAYQKRASAVIDYVDALARAHDRKLMVRLVKGAYWDTEIKRAQERGLDGYPVFTRKAMTDLNYVACASKLLALRPRIFPQFATHNALTVATVLEMAEGSSGFEFQRLHGMGEALYEQLAKDHADIAYRTYAPVGSHRDLLAYLVRRLLENGANSSFVAQAADYRVPVPALLQRPADAIVRPQAAAHPRIPLPCDLFAPERRNSRGVEFGARTALDQLLTDVKAETGDLKPIADATPDQAHAAVAAARAGFAGWSRTPAGIRAAALEQAAHLLESRSAHFIALLQREGGKTLDDALSELREAADFCRYYAAQGRKLFGSETAMPGPTGESNALTMRGRGVFVAISPWNFPLAIFLGQVTAALMAGNSVVAKPAEQTPRIAREAVALLHEAGIPKSALYLVTGDGRIGAALTAHPDIAGVVFTGSTEVARSINRALAAKDGPIVPLIAETGGINAMIADATALPEQVADDVVTSAFRSAGQRCSALRLLFVQEDVADRMIEMVAGAARELKIGDPSDVATHVGPVIDVEAKQRLDAHIARMKTEARLHFAGPAPEGCFVAPHIFELTEAGQLTEEVFGPILHVVRYRPENLERVLRAIERTGYGLTLGVHSRIDDSIEAIIDRVQVGNIYVNRNMIGAVVGVQPFGGNGLSGTGPKAGGPHYLARFATEQTVTINTAAAGGNAALLAGEE
Km (purified protein [2]): 0.105 ± 0.006 mM | kcat (purified protein [2]): 2.9 ± 0.1 s⁻¹ | kcat/Km (purified protein [2]): 27600 ± 1710 M⁻¹ s⁻¹ | Km (purified protein [3]): 43 ± 5 mM | kcat (purified protein [3]): 3.1 ± 0.1 s⁻¹ | kcat/Km (purified protein [3]): 72 ± 8.6 M⁻¹ s⁻¹
